Reference: article PMC3182822

Molecular target: trypsin from bovine pancreas (bovine)
Test: enzyme inhibition kinetics

trypsin from bovine pancreas (bovine), sequence (P00760 24-246): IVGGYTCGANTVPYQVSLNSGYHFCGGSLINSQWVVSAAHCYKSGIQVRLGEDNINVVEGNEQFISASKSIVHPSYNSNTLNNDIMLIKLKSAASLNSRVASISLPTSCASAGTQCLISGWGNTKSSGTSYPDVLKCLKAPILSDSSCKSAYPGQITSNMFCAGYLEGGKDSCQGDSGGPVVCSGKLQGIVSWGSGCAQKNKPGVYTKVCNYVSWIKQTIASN

## ovomucoid trypsin inhibitor (from UniProt P01005 25-210) (natural protein)
  Ki: 57 µM
